Experimental data: patent EP1275713A1

Target: human TLR4 (human) (UniProt O00206)
Assay: BIACORE 3000: TLR4-COS cells (1.7 × 10^5 cells/mL) premixed with 33 µg/mL sCD14(1-307)S286C for 20 minutes, injected over immobilized sCD14(1-356)/LPS

Sequence of UniProt O00206 (O00206 24-839): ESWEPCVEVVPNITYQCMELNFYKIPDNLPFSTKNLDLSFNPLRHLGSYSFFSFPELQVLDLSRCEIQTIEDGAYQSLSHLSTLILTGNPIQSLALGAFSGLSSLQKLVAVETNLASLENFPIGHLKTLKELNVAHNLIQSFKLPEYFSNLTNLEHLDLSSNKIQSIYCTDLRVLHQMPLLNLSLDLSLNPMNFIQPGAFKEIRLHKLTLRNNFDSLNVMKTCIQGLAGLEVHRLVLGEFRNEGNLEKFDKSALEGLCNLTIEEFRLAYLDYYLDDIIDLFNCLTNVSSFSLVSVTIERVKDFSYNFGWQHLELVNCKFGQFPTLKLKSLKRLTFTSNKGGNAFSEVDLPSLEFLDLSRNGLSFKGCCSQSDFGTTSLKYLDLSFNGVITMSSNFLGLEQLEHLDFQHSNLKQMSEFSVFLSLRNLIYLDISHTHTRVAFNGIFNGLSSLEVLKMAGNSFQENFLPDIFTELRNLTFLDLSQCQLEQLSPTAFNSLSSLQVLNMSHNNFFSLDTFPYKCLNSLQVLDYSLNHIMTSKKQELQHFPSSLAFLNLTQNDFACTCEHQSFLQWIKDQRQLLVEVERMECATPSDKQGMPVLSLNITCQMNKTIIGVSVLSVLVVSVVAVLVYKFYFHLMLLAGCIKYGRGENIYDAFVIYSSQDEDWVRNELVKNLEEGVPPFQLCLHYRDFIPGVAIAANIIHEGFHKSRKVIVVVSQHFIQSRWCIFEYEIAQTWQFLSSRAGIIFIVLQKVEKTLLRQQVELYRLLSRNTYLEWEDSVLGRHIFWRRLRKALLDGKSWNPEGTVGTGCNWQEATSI

B1: sCD14(1-307)S286C (receptor)
chain: TTPEPCELDDEDFRCVCNFSEPQPDWSEAFQCVSAVEVEIHAGGLNLEPFLKRVDADADPRQYADTVKALRVRRLTVGAAQVPAQLLVGALRVLAYSRLKELTLEDLKITGTMPPLPLEATGLALSSLRLRNVSWATGRSWLAELQQWLKPGLKVLSIAQAHSPAFSCEQVRAFPALTSLDLSDNPGLGERGLMAALCPHKFPAIQNLALRNTGMETPTGVCAALAAAGVQPHSLDLSHNSLRATVNPSAPRCMWSSALNSLNLSFAGLEQVPKGLPAKLRVLDLCCNRLNRAPQPDELPEVDNLTL
suppression of binding: 100%
